The text below walks through data of the FLAb antibody collection (doi:10.7554/elife.23156).

The chains are these.
B1: scFv; the commonest letter at each place (parent)
chain 1: EVKLDETGGGLVQPGRPMKLSCVASGFTFSDYWMNWVRQSPEKGLEWVAQIRNKPYNYETYYSDSVKGRFTISRDDSKSSVYLQMNNLRVEDMGIYYCTGSYYGMDYWGQGTSVTVS
chain 2: DVVMTQTPLSLPVSLGDQASISCRSSQSLVHSNGNTYLRWYLQKPGQSPKVLIYKVSNRFSGVPDRFSGSGSGTDFTLKISRVEAEDLGVYFCSQSTHVPWTFGGGTKLEIK

Variants of B1 are the subject of the series “fluorescein”. Nature of the series: Kd (Tite-Seq). Conditions: with fluorescein; format: scFv 4-4-20, heavy + light.
The variants in series [1] derive from B1. Nature of the series: yeast surface expression (ratio to wild type); higher = more expressed. Conditions: format: scFv 4-4-20, heavy + light.

In the case of chain 1 EVKLDETGGGLVQPGRPMKLSCVASGFTFTDYWENWVRQSPEKGLEWVAQIRNKPYNYETYYSDSVKGRFTISRDDSKSSVYLQMNNLRVEDMGIYYCTGSYYGMDYWGQGTSVTVS chain 2 DVVMTQTPLSLPVSLGDQASISCRSSQSLVHSNGNTYLRWYLQKPGQSPKVLIYKVSNRFSGVPDRFSGSGSGTDFTLKISRVEAEDLGVYFCSQSTHVPWTFGGGTKLEIK [chain 1 S30T M34E], the Kd (usually the free concentration of one partner at which half of the binding sites on the other are occupied at equilibrium, for simple one-to-one binding) with fluorescein was 0.345 µM. For the same variant, the yeast surface expression in series [1] is 0.314.

Regarding chain 1 EVKLDETGGGLVQPGRPMKLSCVASGFTFTDYWINWVRQSPEKGLEWVAQIRNKPYNYETYYSDSVKGRFTISRDDSKSSVYLQMNNLRVEDMGIYYCTGSYYGMDYWGQGTSVTVS chain 2 DVVMTQTPLSLPVSLGDQASISCRSSQSLVHSNGNTYLRWYLQKPGQSPKVLIYKVSNRFSGVPDRFSGSGSGTDFTLKISRVEAEDLGVYFCSQSTHVPWTFGGGTKLEIK [chain 1 S30T M34I], the Kd with fluorescein worked out at 0.00493 µM. Besides, the yeast surface expression in series [1] amounted to 0.678.

With chain 1 EVKLDETGGGLVQPGRPMKLSCVASGFTFTDYWMNMVRQSPEKGLEWVAQIRNKPYNYETYYSDSVKGRFTISRDDSKSSVYLQMNNLRVEDMGIYYCTGSYYGMDYWGQGTSVTVS chain 2 DVVMTQTPLSLPVSLGDQASISCRSSQSLVHSNGNTYLRWYLQKPGQSPKVLIYKVSNRFSGVPDRFSGSGSGTDFTLKISRVEAEDLGVYFCSQSTHVPWTFGGGTKLEIK [chain 1 S30T W36M], the Kd with fluorescein stood at 0.02 µM. For the same variant, the yeast surface expression in series [1] amounted to 0.705.

On to chain 1 EVKLDETGGGLVQPGRPMKLSCVASGFTFTDYWMNWPRQSPEKGLEWVAQIRNKPYNYETYYSDSVKGRFTISRDDSKSSVYLQMNNLRVEDMGIYYCTGSYYGMDYWGQGTSVTVS chain 2 DVVMTQTPLSLPVSLGDQASISCRSSQSLVHSNGNTYLRWYLQKPGQSPKVLIYKVSNRFSGVPDRFSGSGSGTDFTLKISRVEAEDLGVYFCSQSTHVPWTFGGGTKLEIK [chain 1 S30T V37P], for which the Kd with fluorescein stood at 0.0592 µM.

Take chain 1 EVKLDETGGGLVQPGRPMKLSCVASGFTFTDYWMNWCRQSPEKGLEWVAQIRNKPYNYETYYSDSVKGRFTISRDDSKSSVYLQMNNLRVEDMGIYYCTGSYYGMDYWGQGTSVTVS chain 2 DVVMTQTPLSLPVSLGDQASISCRSSQSLVHSNGNTYLRWYLQKPGQSPKVLIYKVSNRFSGVPDRFSGSGSGTDFTLKISRVEAEDLGVYFCSQSTHVPWTFGGGTKLEIK [chain 1 S30T V37C]: the Kd with fluorescein is 0.000454 µM. In addition, in series [1], the yeast surface expression stood at 0.826.

For the variant chain 1 EVKLDETGGGLVQPGRPMKLSCVASGFTFTDYWMNWWRQSPEKGLEWVAQIRNKPYNYETYYSDSVKGRFTISRDDSKSSVYLQMNNLRVEDMGIYYCTGSYYGMDYWGQGTSVTVS chain 2 DVVMTQTPLSLPVSLGDQASISCRSSQSLVHSNGNTYLRWYLQKPGQSPKVLIYKVSNRFSGVPDRFSGSGSGTDFTLKISRVEAEDLGVYFCSQSTHVPWTFGGGTKLEIK [chain 1 S30T V37W], the Kd in the series with fluorescein was no less than 10 µM. Besides, the yeast surface expression in series [1] is 0.671.

Regarding chain 1 EVKLDETGGGLVQPGRPMKLSCVASGFTFTDYVMNWVRQSPEKGLEWVAQIRNKPYNYETYYSDSVKGRFTISRDDSKSSVYLQMNNLRVEDMGIYYCTGSYYGMDYWGQGTSVTVS chain 2 DVVMTQTPLSLPVSLGDQASISCRSSQSLVHSNGNTYLRWYLQKPGQSPKVLIYKVSNRFSGVPDRFSGSGSGTDFTLKISRVEAEDLGVYFCSQSTHVPWTFGGGTKLEIK [chain 1 S30T W33V], in the series with fluorescein, the Kd was no less than 10 µM. For the same variant, in series [1], the yeast surface expression stood at 0.899.

With chain 1 EVKLDETGGGLVQPGRPMKLSCVASGFTFTDYFMNWVRQSPEKGLEWVAQIRNKPYNYETYYSDSVKGRFTISRDDSKSSVYLQMNNLRVEDMGIYYCTGSYYGMDYWGQGTSVTVS chain 2 DVVMTQTPLSLPVSLGDQASISCRSSQSLVHSNGNTYLRWYLQKPGQSPKVLIYKVSNRFSGVPDRFSGSGSGTDFTLKISRVEAEDLGVYFCSQSTHVPWTFGGGTKLEIK [chain 1 S30T W33F], in the series with fluorescein, the Kd worked out at 0.0534 µM. The yeast surface expression in series [1] was 0.909.

With chain 1 EVKLDETGGGLVQPGRPMKLSCVASGFTFTDYWMNWVRQSPEKGLEWVAQIRNKPYNYETYYSDSVKGRFTISRDDSKSSVYLQMNNLRVEDMGIYYCTGSYYGMDYWGQGTSVTVS chain 2 DVVMTQTPLSLPVSLGDQASISCRSSQSLVHSNGNTYLRWYLQKPGQSPKVLIYKVSNRFSGVPDRFSGSGSGTDFTLKISRVEAEDLGVYFCSQSTHVPWTFGGGTKLEIK [chain 1 S30T], in the series with fluorescein, the Kd came out at 0.000743 µM. In addition, the yeast surface expression in series [1] came out at 1.07.

For the variant chain 1 EVKLDETGGGLVQPGRPMKLSCVASGFTFVDYWMNWVRQSPEKGLEWVAQIRNKPYNYETYYSDSVKGRFTISRDDSKSSVYLQMNNLRVEDMGIYYCTGSYYGMDYWGQGTSVTVS chain 2 DVVMTQTPLSLPVSLGDQASISCRSSQSLVHSNGNTYLRWYLQKPGQSPKVLIYKVSNRFSGVPDRFSGSGSGTDFTLKISRVEAEDLGVYFCSQSTHVPWTFGGGTKLEIK [chain 1 S30V], the Kd with fluorescein was 0.000743 µM. Moreover, the yeast surface expression in series [1] came to 0.901.

As to chain 1 EVKLDETGGGLVQPGRPMKLSCVASGFTFTDYWMQWVRQSPEKGLEWVAQIRNKPYNYETYYSDSVKGRFTISRDDSKSSVYLQMNNLRVEDMGIYYCTGSYYGMDYWGQGTSVTVS chain 2 DVVMTQTPLSLPVSLGDQASISCRSSQSLVHSNGNTYLRWYLQKPGQSPKVLIYKVSNRFSGVPDRFSGSGSGTDFTLKISRVEAEDLGVYFCSQSTHVPWTFGGGTKLEIK [chain 1 S30T N35Q], the Kd with fluorescein is no less than 10 µM. Moreover, the yeast surface expression in series [1] came out at 0.831.

Consider chain 1 EVKLDETGGGLVQPGRPMKLSCVASGFTFVMYWMNWVRQSPEKGLEWVAQIRNKPYNYETYYSDSVKGRFTISRDDSKSSVYLQMNNLRVEDMGIYYCTGSYYGMDYWGQGTSVTVS chain 2 DVVMTQTPLSLPVSLGDQASISCRSSQSLVHSNGNTYLRWYLQKPGQSPKVLIYKVSNRFSGVPDRFSGSGSGTDFTLKISRVEAEDLGVYFCSQSTHVPWTFGGGTKLEIK [chain 1 S30V D31M], for which the Kd with fluorescein came out at 0.0372 µM. In series [1], the yeast surface expression was found to be 0.223.

As for chain 1 EVKLDETGGGLVQPGRPMKLSCVASGFTFVPYWMNWVRQSPEKGLEWVAQIRNKPYNYETYYSDSVKGRFTISRDDSKSSVYLQMNNLRVEDMGIYYCTGSYYGMDYWGQGTSVTVS chain 2 DVVMTQTPLSLPVSLGDQASISCRSSQSLVHSNGNTYLRWYLQKPGQSPKVLIYKVSNRFSGVPDRFSGSGSGTDFTLKISRVEAEDLGVYFCSQSTHVPWTFGGGTKLEIK [chain 1 S30V D31P], the Kd in the series with fluorescein is no less than 10 µM. Moreover, in series [1], the yeast surface expression was 0.754.
